Results published in patent US20160193292A1.

Molecular target: JNK-interacting protein 1 (JIP-1) (UniProt Q9WVI9)
Assay: IP-FCM of lysates from OT-I T cells stimulated with OVA-Tet/α-CD28 in the presence of Tat-POSH vs Tat-cont.; competitor for POSH

JNK-interacting protein 1 (JIP-1), sequence (Q9WVI9 whole entry): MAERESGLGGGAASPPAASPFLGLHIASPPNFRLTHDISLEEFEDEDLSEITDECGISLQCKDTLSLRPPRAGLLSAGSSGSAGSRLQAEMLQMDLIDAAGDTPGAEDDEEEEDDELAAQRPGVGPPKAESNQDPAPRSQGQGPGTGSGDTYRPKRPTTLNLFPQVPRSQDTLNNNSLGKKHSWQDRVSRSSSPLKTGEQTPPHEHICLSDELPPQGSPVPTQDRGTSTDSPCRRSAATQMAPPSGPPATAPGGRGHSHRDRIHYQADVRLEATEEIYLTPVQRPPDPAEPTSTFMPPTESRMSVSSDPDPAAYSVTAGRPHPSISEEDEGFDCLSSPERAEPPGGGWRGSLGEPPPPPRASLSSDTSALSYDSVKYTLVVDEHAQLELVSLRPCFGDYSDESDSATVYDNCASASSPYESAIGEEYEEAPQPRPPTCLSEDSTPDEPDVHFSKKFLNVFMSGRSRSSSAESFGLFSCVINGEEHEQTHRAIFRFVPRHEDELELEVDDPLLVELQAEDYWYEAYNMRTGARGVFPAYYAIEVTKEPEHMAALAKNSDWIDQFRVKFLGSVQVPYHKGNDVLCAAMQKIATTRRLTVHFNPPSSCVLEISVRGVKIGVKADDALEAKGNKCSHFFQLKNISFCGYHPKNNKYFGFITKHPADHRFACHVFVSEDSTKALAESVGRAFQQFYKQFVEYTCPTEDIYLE

**Q.** How did the percent of POSH/JIP-1 complexes disrupted turn out when “Tat-POSH SH3.3 (cell-permeable peptide containing the HIV Tat protein transduction domain fused to the SH3.3 of POSH)” was run?
**A.** 30%
